From paper PMC8448314

Target: Fc-tagged SARS-CoV-2 RBD (residues 319-535, C-terminal human IgG4 Fc region) (SARS-CoV-2 | human) (UniProt P0DTC2)
Assay: SEC; Superose 6 Increase 10/300 GL gel filtration of each purified protein alone

## Fc-tagged SARS-CoV-2 RBD (residues 319-535, C-terminal human IgG4 Fc region) (from UniProt P0DTC2 319-535) (Fc fusion)
  stoichiometry N: 2
